Source: patent publication US20220175781A1, “CD40L COMPOSITIONS AND METHODS FOR TUNABLE REGULATION” (Obsidian Therapeutics, Inc., priority 2019, published 2022)

What was measured:
Type in all cases: cell-based
Jurkat cells = assay: Surface expression of CD40L by FACS in lentivirally transduced Jurkat cells; conditions: FACS
Description: 50,000 Jurkat cells were transduced with lentiviruses corresponding to the constructs. OT-001661, OT-001685, OT-001662, or OT-001666 and cultured for 48h. Cells were split and incubated with ligands for 24h before analysis by flow cytometry.
Jurkat cells were treated with one of the following: 1 μM Shield-1, 50 μM TMP, 1 μM Bazedoxifene (BZD) or vehicle control. Surface expression of CD40L was measured using FACS and the results are show in Table 9. All values were normalized to mode.

HEK-Blue™ CD40 cells = assay: HEK-Blue CD40 SEAP reporter co-culture with transduced Jurkat cells; conditions: ligand 24 h (1 μM Shield-1, 50 μM TMP or 1 μM Bazedoxifene), recombinant soluble CD40L as standard
Description: Jurkat cells transduced with OT-001661, OT-001685, OT-001662, OT-001666, or OT-001667 were co-cultured with HEK-Blue™ CD40 cells (Invivogen, San Diego, Calif.). Cocultures were treated with ligands (1 μM Shield-1, 50 μM TMP, 1 μM Bazedoxifene (BZD) or vehicle control) for 24 hours and the secreted embryonic alkaline phosphatase (SEAP) reporter levels were measured in the media. All vehicle treated samples had background SEAP activity. Recombinant soluble CD40L was used as the standard in the experiments.

CD8 positive T cells = assay: CD40L MFI by FACS in transduced CD8 positive T cells
Description: Regulation of ecDHFR (R12Y, Y100I) DRD based construct OT-001662 and ER (N413D) DRD based construct OT-001666 were tested in CD8 positive T cells. For OT-001662, expressing cells, ligand was added 6 days after viral transduction at a dose of 50 μM TMP. OT-001666 expressing cells were treated with 0.5 μM Bazedoxifene or vehicle control, 5 days after transduction. Approximately 15-30k cells were analyzed per sample by FACS. All samples were compared to empty vector control as well as the constitutively expressed construct, OT-001661. Table 11 provides the mean fluorescence intensities (MFIs) obtained with each sample.

CD4+ T cells = assay: Ligand dose response, % CD40L positive cells, CD4+ T cells
Description: (§1) Ligand dose response curve experiments were performed with increasing doses of ligand using OT-001662 and OT-001666 constructs in both CD4+ as well as CD8+ T cells.
(§2) The experiments were conducted using three different volumes of virus for transduction i.e. 0.5, 2 and 10 μL.

CD8+ T cells = assay: Ligand dose response, % CD40L positive cells, CD8+ T cells
Description: as §1, §2

[1] = tested on: T cells co-cultured with monocyte derived dendritic cells (mDC); assay: CD40L levels in T cells in mDC co-culture (FACS); conditions: for % CD40L+ / CD40L MFI: mDC co-culture 2 days; for SR (based on %) / SR (based on MFI): stabilization ratio
Text: In order to engage dendritic cells in an immune response, dendritic cells must be converted to a functional state by an antigen-specific CD4+ helper T cell. Activation of the dendritic cells may be followed by the activation of CD8+ T cells by the dendritic cells, a process referred to as dendritic cell licensing. Engagement of the CD40L expressed on the CD4+ cells with the CD40 on the dendritic cells can result in (i) dendritic cell stimulation-measured by expression of co-stimulatory and MHC molecules (ii) proinflammatory cytokine release (e.g. IL12, TNFα and INFγ) (iii) epitope spreading. To measure the effect of CD40L expression that is tuned by the biocircuits of the present disclosure, CD4+ T cells or Jurkat cells expressing any of the CD40L constructs described herein were co-cultured with dendritic cells.
Dendritic cell function in response to co-culture with T cells expressing CD40L was evaluated in the presence of ligand or corresponding vehicle control. Monocyte derived dendritic cells (mDC) (CD14+) were isolated from fresh blood and cultured for 5 days with IL-4 (7.5 ng/mL) and GM-CSF (20 ng/mL). The mDCs were frozen down after the 5 day culture. T cells were transduced with OT-001662 and expanded for 9 days before being frozen down. mDCs and T cells were thawed and co-cultured 1:10 DC: T cell ratio (i.e. 5×10^4 DCs: 5×10^5 T cells). mDC and T cells were co-cultured for 2 days before cells were collected for flow cytometry and supernatants were collected for cytokine analysis. For evaluation of regulated constructs, ligand (various doses of TMP) was added at the time initiating the co-culture and was kept in the co-culture for 2 days. Cytokines were analyzed by MSD after a single freeze thaw cycle. All cells were cultured in complete RPMI with 10% FBS during the course of the experiment. SR indicates stabilization ratio.

[2] = ligand 24 h (1 μM Shield-1 OT-001685, 50 μM TMP OT-001662, 1 μM Bazedoxifene OT-001666)
[3] = vehicle 24 h (Ethanol 0.2% OT-001685, DMSO 0.5% OT-001662, DMSO 0.01% OT-001666)

B1: OT-001662: CD40L construct with ecDHFR (M1del, R12Y, Y100I) DRD, ligand TMP (protein)
chain: MSGISLIAALAVDYVIGMENAMPWNLPADLAWFKRNTLNKPVIMGRHTWESIGRPLPGRKNIILSSQPGTDDRVTWVKSVDEAIAACGDVPEIMVIGGGRVIEQFLPKAQKLYLTHIDAEVEGDTHFPDYEPDDWESVFSEFHDADAQNSHSYCFEILERRHMIETYNQTSPRSAATGLPISMKIFMYLLTVFLITQMIGSALFAVYLHRRLDKIEDERNLHEDFVFMKTIQRCNTGERSLSLLNCEEIKSQFEGFVKDIMLNKEETKKENSFEMQKGDQNPQIAAHVISEASSKTTSVLQWAEKGYYTMSNNLVTLENGKQLTVKRQGLYYIYAQVTFCSNREASSQAPFIASLCLKSPGRFERILLRAANTHSSAKPCGQQSIHLGGVFELQPGASVFVNVTDPSQVSHGTGFTSFGLLKL
- CD40L positive percent of live cells (Jurkat cells; [2]): 98.4%
- Geometric Mean of CD40L fluorescent intensity (Jurkat cells; [2]): 6068
- CD40L positive percent of live cells (Jurkat cells; [3]): 0.023%
- Geometric Mean of CD40L fluorescent intensity (Jurkat cells; [3]): 27.9
- Soluble CD40L (HEK-Blue™ CD40 cells): 8657.75 pg/mL
- Expression of CD40L in the presence of ligand, comparison of constructs (CD8 positive T cells): higher than the ER DRD based construct
- CD40L MFI (CD8 positive T cells; +Ligand (50 μM TMP OT-001662; 0.5 μM Bazedoxifene OT-001666)): 283
- CD40L MFI (CD8 positive T cells; Vehicle): 29.0
- % CD40L positive cells (CD4+ T cells; 0.5 μL virus, TMP 0.05 nM): 31.6%
- % CD40L positive cells (CD4+ T cells; 0.5 μL virus, TMP 0.5 nM): 32%
- % CD40L positive cells (CD4+ T cells; 0.5 μL virus, TMP 5 nM): 33.9%
- % CD40L positive cells (CD4+ T cells; 0.5 μL virus, TMP 50 nM): 35.7%
- % CD40L positive cells (CD4+ T cells; 0.5 μL virus, TMP 500 nM): 48.2%
- % CD40L positive cells (CD4+ T cells; 0.5 μL virus, TMP 5000 nM): 67%
- % CD40L positive cells (CD4+ T cells; 0.5 μL virus, TMP 50000 nM): 68.9%
- % CD40L positive cells (CD4+ T cells; 2 μL virus, TMP 0.05 nM): 25.1%
- % CD40L positive cells (CD4+ T cells; 2 μL virus, TMP 0.5 nM): 24.4%
- % CD40L positive cells (CD4+ T cells; 2 μL virus, TMP 5 nM): 27.6%
- % CD40L positive cells (CD4+ T cells; 2 μL virus, TMP 50 nM): 37.4%
- % CD40L positive cells (CD4+ T cells; 2 μL virus, TMP 500 nM): 68.4%
- % CD40L positive cells (CD4+ T cells; 2 μL virus, TMP 5000 nM): 76.8%
- % CD40L positive cells (CD4+ T cells; 2 μL virus, TMP 50000 nM): 76.8%
- % CD40L positive cells (CD4+ T cells; 10 μL virus, TMP 0.05 nM): 23.8%
- % CD40L positive cells (CD4+ T cells; 10 μL virus, TMP 0.5 nM): 24.2%
- % CD40L positive cells (CD4+ T cells; 10 μL virus, TMP 5 nM): 24.6%
- % CD40L positive cells (CD4+ T cells; 10 μL virus, TMP 50 nM): 30.7%
- % CD40L positive cells (CD4+ T cells; 10 μL virus, TMP 500 nM): 58.5%
- % CD40L positive cells (CD4+ T cells; 10 μL virus, TMP 5000 nM): 79.1%
- % CD40L positive cells (CD4+ T cells; 10 μL virus, TMP 50000 nM): 78.8%
- % CD40L positive cells (CD8+ T cells; 0.5 μL virus, TMP 0.05 nM): 0.16%
- % CD40L positive cells (CD8+ T cells; 0.5 μL virus, TMP 0.5 nM): 0.17%
- % CD40L positive cells (CD8+ T cells; 0.5 μL virus, TMP 5 nM): 0.12%
- % CD40L positive cells (CD8+ T cells; 0.5 μL virus, TMP 50 nM): 0.19%
- % CD40L positive cells (CD8+ T cells; 0.5 μL virus, TMP 500 nM): 0.66%
- % CD40L positive cells (CD8+ T cells; 0.5 μL virus, TMP 5000 nM): 9.21%
- % CD40L positive cells (CD8+ T cells; 0.5 μL virus, TMP 50000 nM): 25.2%
- % CD40L positive cells (CD8+ T cells; 2 μL virus, TMP 0.05 nM): 0.2%
- % CD40L positive cells (CD8+ T cells; 2 μL virus, TMP 0.5 nM): 0.34%
- % CD40L positive cells (CD8+ T cells; 2 μL virus, TMP 5 nM): 0.3%
- % CD40L positive cells (CD8+ T cells; 2 μL virus, TMP 50 nM): 0.64%
- % CD40L positive cells (CD8+ T cells; 2 μL virus, TMP 500 nM): 6.84%
- % CD40L positive cells (CD8+ T cells; 2 μL virus, TMP 5000 nM): 40.6%
- % CD40L positive cells (CD8+ T cells; 2 μL virus, TMP 50000 nM): 51%
- % CD40L positive cells (CD8+ T cells; 10 μL virus, TMP 0.05 nM): 0.95%
- % CD40L positive cells (CD8+ T cells; 10 μL virus, TMP 0.5 nM): 1.08%
- % CD40L positive cells (CD8+ T cells; 10 μL virus, TMP 5 nM): 1.02%
- % CD40L positive cells (CD8+ T cells; 10 μL virus, TMP 50 nM): 1.07%
- % CD40L positive cells (CD8+ T cells; 10 μL virus, TMP 500 nM): 5.53%
- % CD40L positive cells (CD8+ T cells; 10 μL virus, TMP 5000 nM): 47.4%
- % CD40L positive cells (CD8+ T cells; 10 μL virus, TMP 50000 nM): 59.4%
- % CD40L+ ([1]; CD4+, DMSO): 3.71%
- CD40L MFI ([1]; CD4+, DMSO): 63.8
- % CD40L+ ([1]; CD4+, TMP (0.1 μM)): 4.32%
- CD40L MFI ([1]; CD4+, TMP (0.1 μM)): 69.8
- % CD40L+ ([1]; CD4+, TMP (0.5 μM)): 3.34%
- CD40L MFI ([1]; CD4+, TMP (0.5 μM)): 61.1
- % CD40L+ ([1]; CD4+, TMP (2 μM)): 78%
- CD40L MFI ([1]; CD4+, TMP (2 μM)): 691
- % CD40L+ ([1]; CD4+, TMP (10 μM)): 84.1%
- CD40L MFI ([1]; CD4+, TMP (10 μM)): 1379
- SR (based on %) ([1]; CD4+, TMP (0.1 μM)): 1.16
- SR (based on MFI) ([1]; CD4+, TMP (0.1 μM)): 1.09
- SR (based on %) ([1]; CD4+, TMP (0.5 μM)): 0.90
- SR (based on MFI) ([1]; CD4+, TMP (0.5 μM)): 0.96
- SR (based on %) ([1]; CD4+, TMP (2 μM)): 21.02
- SR (based on MFI) ([1]; CD4+, TMP (2 μM)): 10.83
- SR (based on %) ([1]; CD4+, TMP (10 μM)): 22.67
- SR (based on MFI) ([1]; CD4+, TMP (10 μM)): 21.61
- % CD40L+ ([1]; CD8+, DMSO): 0.47%
- CD40L MFI ([1]; CD8+, DMSO): 57.8
- % CD40L+ ([1]; CD8+, TMP (0.1 μM)): 0.69%
- CD40L MFI ([1]; CD8+, TMP (0.1 μM)): 61.5
- % CD40L+ ([1]; CD8+, TMP (0.5 μM)): 0.57%
- CD40L MFI ([1]; CD8+, TMP (0.5 μM)): 54.5
- % CD40L+ ([1]; CD8+, TMP (2 μM)): 57.8%
- CD40L MFI ([1]; CD8+, TMP (2 μM)): 419
- % CD40L+ ([1]; CD8+, TMP (10 μM)): 74.9%
- CD40L MFI ([1]; CD8+, TMP (10 μM)): 951
- SR (based on %) ([1]; CD8+, TMP (0.1 μM)): 1.47
- SR (based on MFI) ([1]; CD8+, TMP (0.1 μM)): 1.06
- SR (based on %) ([1]; CD8+, TMP (0.5 μM)): 1.21
- SR (based on MFI) ([1]; CD8+, TMP (0.5 μM)): 0.94
- SR (based on %) ([1]; CD8+, TMP (2 μM)): 122.98
- SR (based on MFI) ([1]; CD8+, TMP (2 μM)): 7.25
- SR (based on %) ([1]; CD8+, TMP (10 μM)): 159.36
- SR (based on MFI) ([1]; CD8+, TMP (10 μM)): 16.45
- Ligand dependent regulation of CD40L ([1]; mDC-T cell co-culture 2 days, various doses of TMP, CD4 and CD8+ cells): Ligand dependent regulation of CD40L was evident
